In IntAct's records for PubMed 11779178:

B1: Merlin (Homo sapiens), P35240-3 (parent)
chain: MAGAIASRMSFSSLKRKQPKTFTVRIVTMDAEMEFNCEMKWKGKDLFDLVCRTLGLRETWFFGLQYTIKDTVAWLKMDKKVLDHDVSKEEPVTFHFLAKFYPENAEEELVQEITQHLFFLQVKKQILDEKIYCPPEASVLLASYAVQAKYGDYDPSVHKRGFLAQEELLPKRVINLYQMTPEMWEERITAWYAEHRGRARDEAEMEYLKIAQDLEMYGVNYFAIRNKKGTELLLGVDALGLHIYDPENRLTPKISFPWNEIRNISYSDKEFTIKPLDKKIDVFKFNSSKLRVNKLILQLCIGNHDLFMRRRKADSLEVQQMKAQAREEKARKQMERQRLAREKQMREEAERTRDELERRLLQMKEEATMANEALMRSEETADLLAEKAQITEEEAKLLAQKAAEAEQEMQRIKATAIRTEEEKRLMEQKVLEAEVLALKMAEESERRAKEADQLKQDLQEAREAERRAKQKLLEIATKPTYPPMNPIPAPLPPDIPSFNLIGDSLSFDFKDTDMKRLSMEIEKEKVEYMEKSKHLQEQLNELKTEIEALKLKERETALDILHNENSDRGGSSKHNTIKKPQAQGRRPICI

Tests used:
[1] = variants of: B1; conditions: with eif3c_human EIF3C
[2] = variants of: B1; conditions: with HGS
[3] = variants of: B1; conditions: with HGS
[4] = variants of: B1; conditions: with NF2, P35240-1
[5] = variants of: B1; conditions: with sptb2_human SPTBN1, Q01082
sptb2_human SPTBN1, Q01082, sequence (Q01082 whole entry): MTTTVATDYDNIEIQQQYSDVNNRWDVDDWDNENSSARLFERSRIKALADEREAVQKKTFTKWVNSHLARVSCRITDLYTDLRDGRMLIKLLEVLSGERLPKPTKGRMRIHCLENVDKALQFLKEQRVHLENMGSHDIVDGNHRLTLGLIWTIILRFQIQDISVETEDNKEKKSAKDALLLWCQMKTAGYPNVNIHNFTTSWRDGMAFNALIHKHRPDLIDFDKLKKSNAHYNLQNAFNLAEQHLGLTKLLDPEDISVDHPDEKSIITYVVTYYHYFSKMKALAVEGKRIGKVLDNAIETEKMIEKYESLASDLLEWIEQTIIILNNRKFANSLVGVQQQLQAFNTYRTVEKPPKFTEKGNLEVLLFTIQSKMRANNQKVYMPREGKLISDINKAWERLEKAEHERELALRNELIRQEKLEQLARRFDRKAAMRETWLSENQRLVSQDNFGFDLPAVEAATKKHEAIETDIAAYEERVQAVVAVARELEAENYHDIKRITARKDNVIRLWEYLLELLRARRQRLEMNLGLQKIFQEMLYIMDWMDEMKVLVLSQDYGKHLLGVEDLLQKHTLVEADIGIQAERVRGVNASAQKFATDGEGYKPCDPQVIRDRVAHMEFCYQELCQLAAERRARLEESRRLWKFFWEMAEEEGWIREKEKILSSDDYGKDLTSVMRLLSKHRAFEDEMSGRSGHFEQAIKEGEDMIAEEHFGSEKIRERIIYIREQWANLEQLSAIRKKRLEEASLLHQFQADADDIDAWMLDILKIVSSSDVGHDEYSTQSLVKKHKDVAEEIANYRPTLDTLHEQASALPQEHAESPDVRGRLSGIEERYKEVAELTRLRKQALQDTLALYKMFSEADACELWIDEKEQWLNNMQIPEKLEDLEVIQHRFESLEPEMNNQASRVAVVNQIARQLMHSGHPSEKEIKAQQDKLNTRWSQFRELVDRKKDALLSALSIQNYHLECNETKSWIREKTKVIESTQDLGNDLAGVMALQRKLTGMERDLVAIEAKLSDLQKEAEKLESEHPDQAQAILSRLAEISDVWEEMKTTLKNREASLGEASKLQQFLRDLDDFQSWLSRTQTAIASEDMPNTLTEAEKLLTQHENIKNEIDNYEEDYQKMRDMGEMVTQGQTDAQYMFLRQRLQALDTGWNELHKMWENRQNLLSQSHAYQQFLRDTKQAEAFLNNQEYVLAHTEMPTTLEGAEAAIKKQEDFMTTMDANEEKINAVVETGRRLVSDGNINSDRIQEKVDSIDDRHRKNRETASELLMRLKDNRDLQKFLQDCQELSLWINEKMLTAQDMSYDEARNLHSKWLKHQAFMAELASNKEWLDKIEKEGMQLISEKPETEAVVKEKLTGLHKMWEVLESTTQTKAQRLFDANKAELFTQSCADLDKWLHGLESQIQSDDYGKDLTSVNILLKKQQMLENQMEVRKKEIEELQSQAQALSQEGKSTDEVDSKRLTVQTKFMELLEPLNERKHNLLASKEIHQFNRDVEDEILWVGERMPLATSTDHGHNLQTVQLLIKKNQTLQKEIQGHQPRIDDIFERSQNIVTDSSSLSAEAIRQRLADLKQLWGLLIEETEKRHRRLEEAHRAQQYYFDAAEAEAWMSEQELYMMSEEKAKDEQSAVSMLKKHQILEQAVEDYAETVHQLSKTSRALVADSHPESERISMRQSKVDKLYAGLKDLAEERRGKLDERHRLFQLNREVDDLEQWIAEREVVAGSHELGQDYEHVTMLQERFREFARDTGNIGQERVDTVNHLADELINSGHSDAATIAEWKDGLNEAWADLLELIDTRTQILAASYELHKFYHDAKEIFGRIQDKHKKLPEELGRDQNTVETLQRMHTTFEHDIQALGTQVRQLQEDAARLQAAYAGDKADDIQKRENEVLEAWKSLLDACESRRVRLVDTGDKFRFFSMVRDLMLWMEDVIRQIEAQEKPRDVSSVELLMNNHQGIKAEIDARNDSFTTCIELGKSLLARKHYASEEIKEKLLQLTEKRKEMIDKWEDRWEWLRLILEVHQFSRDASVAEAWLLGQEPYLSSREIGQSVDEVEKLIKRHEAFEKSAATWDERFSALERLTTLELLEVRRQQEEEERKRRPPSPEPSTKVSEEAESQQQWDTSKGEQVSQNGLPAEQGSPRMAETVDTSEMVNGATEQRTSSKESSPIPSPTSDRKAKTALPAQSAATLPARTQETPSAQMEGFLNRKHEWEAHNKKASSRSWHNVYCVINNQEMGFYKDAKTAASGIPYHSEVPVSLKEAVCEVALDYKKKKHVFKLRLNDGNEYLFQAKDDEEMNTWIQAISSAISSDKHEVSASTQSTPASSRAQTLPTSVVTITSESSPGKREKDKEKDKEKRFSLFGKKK

effect of a mutation on the interaction [1]	effect of a mutation on the interaction [2]	effect of a mutation on the interaction [3]	effect of a mutation on the interaction [4]	effect of a mutation on the interaction [5]	Variant
disrupting interaction strength	decreasing interaction strength	decreasing interaction strength	disrupting interaction strength	disrupting interaction strength	MAGAIASRMSFSSLKRKQPKTFTVRIVTMDAEMEFNCEMKWKGKDRFDLVCRTLGLRETWFFGLQYTIKDTVAWLKMDKKVLDHDVSKEEPVTFHFLAKFYPENAEEELVQEITQHLFFLQVKKQILDEKIYCPPEASVLLASYAVQAKYGDYDPSVHKRGFLAQEELLPKRVINLYQMTPEMWEERITAWYAEHRGRARDEAEMEYLKIAQDLEMYGVNYFAIRNKKGTELLLGVDALGLHIYDPENRLTPKISFPWNEIRNISYSDKEFTIKPLDKKIDVFKFNSSKLRVNKLILQLCIGNHDLFMRRRKADSLEVQQMKAQAREEKARKQMERQRLAREKQMREEAERTRDELERRLLQMKEEATMANEALMRSEETADLLAEKAQITEEEAKLLAQKAAEAEQEMQRIKATAIRTEEEKRLMEQKVLEAEVLALKMAEESERRAKEADQLKQDLQEAREAERRAKQKLLEIATKPTYPPMNPIPAPLPPDIPSFNLIGDSLSFDFKDTDMKRLSMEIEKEKVEYMEKSKHLQEQLNELKTEIEALKLKERETALDILHNENSDRGGSSKHNTIKKPQAQGRRPICI [L46R]
with no effect	with no effect	with no effect	decreasing interaction strength	increasing interaction strength	MAGAIASRMSFSSLKRKQPKTFTVRIVTMDAEMEFNCEMKCKGKDLFDLVCRTLGLRETWFFGLQYTIKDTVAWLKMDKKVLDHDVSKEEPVTFHFLAKFYPENAEEELVQEITQHLFFLQVKKQILDEKIYCPPEASVLLASYAVQAKYGDYDPSVHKRGFLAQEELLPKRVINLYQMTPEMWEERITAWYAEHRGRARDEAEMEYLKIAQDLEMYGVNYFAIRNKKGTELLLGVDALGLHIYDPENRLTPKISFPWNEIRNISYSDKEFTIKPLDKKIDVFKFNSSKLRVNKLILQLCIGNHDLFMRRRKADSLEVQQMKAQAREEKARKQMERQRLAREKQMREEAERTRDELERRLLQMKEEATMANEALMRSEETADLLAEKAQITEEEAKLLAQKAAEAEQEMQRIKATAIRTEEEKRLMEQKVLEAEVLALKMAEESERRAKEADQLKQDLQEAREAERRAKQKLLEIATKPTYPPMNPIPAPLPPDIPSFNLIGDSLSFDFKDTDMKRLSMEIEKEKVEYMEKSKHLQEQLNELKTEIEALKLKERETALDILHNENSDRGGSSKHNTIKKPQAQGRRPICI [W41C]
